Test results reported in PMC3107197.

Target: GFP-tagged Fab1p (yeast) [yeast]
Assay: co-immunoprecipitation (IP: Fab1p-GFP), densitometry
Conditions: Bound fraction; parent: 1

- ratio to parent: 0.4
Substance: myc-tagged Fig4p (wildtype, yeast) mutant I59T [yeast] / GFP-tagged Fab1p (yeast) [yeast] chain 1 I59T
